From a protein production outcome set (Wang et al. 2014)

Assay: label from the status in PepcDB records

| Sequence | protein production |
| --- | --- |
| MASLEVSRSPRRSRRELEVRSPRQNKYSVLLPTYNERENLPLIVWLLVKSFSESGINYEIIIIDDGSPDGTRDVAEQLEKIYGSDRILLRPREKKLGLGTAYIHGMKHATGNYIIIMDADLSHHPKFIPEFIRKQKEGNFDIVSGTRYKGNGGVYGWDLKRKIISRGANFLTQILLRPGASDLTGSFRLYRKEVLEKLIEKCVSKGYVFQMEMIVRARQLNYTIGEVPISFVDRVYGESKLGGNEIVSFLKGLLTLFATT | failed |
| MDGVYVLSVKEDVPAAGILHAGDLITEIDGQSFKSSQEFIDYIHSKKVGDTVKIKYKHGNKNEEASIKLTAIDKKGTPGIGITLVDDLEHHHHHH | failed |
| MNIVKLMVIIIYLIIGSALGIIIIPEIANDLGLQNSSFLKNHYVDGIIGSIFMFLIFGVFIRRVTNAIKGLEHFIMRRSAVEILFATIGLIIGLLISVMVSFILESIGNSIFNHFIPVIITILLCYFGFQFGLKKRDEMLMFLPENIARSMSQHTKSATPKIIDTSAIIDGRILEVIRCGFIDGNILIPQGVINELQIVADSNDSVKREKGKRGLDILNELYDLDYPTKVIHPTKTHSDIDTMLLKLAKQYHASIITTDFNLNKVCHVHGIKALNVNDLSEAIKPNVHQGDQLHILLTKMGKEPGQAVGYLDDGTMVVVDNAKNLIGSHVNLEVVSLLQTSSGRIVFAKKIEDTVSLLEHHHHHH | failed |
| MNKDLKAIKWFITTQILKDPFNPAYATFKVTSRCNLRCTFCSPSYYSGELGEGSTERVKKIIDNLRDSSIVVLSFEGGEPTYRPDILDLLEYAHDGSFYIMLTTNGYRLKDEDFLTKLADKIDFLHYSIDEYHWNVKELENLCRFRKYGLKVNVQTVVTRYNLYKLEEKVRKVAECGYKILAMPAVDYPNSKVKLAPDPYEFYKVLYDLKRKYGSTLNNSWGFINAIIGKVPKRVVSYAITIYPNGDLPYPDDINGEIVGNVAEEPLNKILQSSKVKELQQKMLENQAKFEYLHLQTASFNNIRDLASYVSEMLRWRFTGRA | failed |
| MNCAISGEVPVEPVVSTKSGLLFERRLIERHISDYGKCPVTGEPLTIDDIVPIKTGEIIKPKTLHTASIPGLLGTFQNEWDGLMLSNFALEQQLHTARQELSHALYQHDSACRVIARLKKERDEARQLLAEVERHIPAAPEAVTANAALSNGKRAAVDEELGPDAKKLCPGISAEIITELTDCNAALSQKRKKRQIPQTLASIDTLERFTQLSSHPLHKTNKPGICSMDILHSKDVIATGGVDATAVLFDRPSGQILSTLTGHSKKVTSVKFVGDSDLVLTASADKTVRIWRNPGDGNYACGYTLNDHSAEVRAVTVHPTNKYFVSASLDGTWCFYDLSSGSCLAQVSDDSKNVDYTAAAFHPDGLILGTGTSQSVVKIWDVKSQANVAKFDGHTGEVTAISFSENGYFLATAAEDGVRLWDLRKLRNFKSFLSADANSVEFDPSGSYLGIAASDIKVYQTASVKAEWNLIKTLPDLSGTGKATCVKFGSDAQYVAVGSMDRNYGYLVFLVMKKPTSMMTLRKTREQSVKNSDRTFQMSISSVISLKFLKFCCILQYLQQWGRIS | failed |
| MSLIPLRQNIASMKGYIPGYQPPDIASWIKLNTNENPYPPSPEVVKAILEELGPDGAALRIYPSASSQKLREVAGELYGFDPSWIIMANGSDEVLNNLIRAFAAEGEEIGYVHPSYSYYGTLAEVQGARVRTFGLTGDFRIAGFPERYEGKVFFLTTPNAPLGPSFPLEYIDELARRCAGMLVLDETYAEFAESNALELVRRHENVVVTRTLSKSYSLAGMRIGLAIARPEVIAALDKIRDHYNLDRLAQAACVAALRDQAYLSECCRRIRETREWFTTELRSIGYDVIPSQGNYLFATPPDRDGKRVYDGLYARKVLVRHFSDPLLAHGMRISIGTREEMEQTLAALKEIGEGHHHHHH | not failed |
| MRLVVLSDIHGNLGAFEAVLADIATQDVDDIISLGDNVGYGPDPGPVLRLLRQRGIDSVLGNHEAAIADRRRRRRFNSQSREALDLTEAWLDADGRACIASMPPVLLRHGCRFVHGMPPDSPFTYLFEFMGRRLPKVFTLFAEALCFVGHTHDLEVLRCDETGAVASVLLPTASPDVAGQMPPGPLPGPSPDATLATSPGAQPEGLTLSTASPRVTVQTLVLDAGARHLVNVGSVGQPRDGDPRAKYVVWDDTARTLTVRRVAYDVAAAVRRFAEAGVAQRYIDRLG | failed |
| IRTHLNLPSDKKVIMYAPTWRDDEFVSKGKYLFELKIDLDNLYKELGDDYVILLRMHYLISNALDLSGYENFAIDVSNYNDVSELFLISDCLITDYSSVMFDYGILKRPQFFFAYDIDKYDKGLRGFYMNYMEDLPGPIYTEPYGLAKELKNLDKVQQQYQEKIDAFYDRFCSVDNGKASQYIGDLIHKDIKEQ | failed |
| MSRINKFVLTVSLLIFIMISAVACGIYTQMVKERVYSLKQSVIDTAFAVANIAEYRRSVAIDLINTLNPTEEQLLVGLRTAYADSVSPSYLYDVGPYLISSDECIQVKEFEKNYCADIMQVVKYRHVKNTGFISFDGKTFVYYLYPVTHNRSLIFLLGLERFSLLSKSLAMDSENLMFSLFKNGKPVTGDEYNAKNAIFTVSEAMEHFAYLPTGLYVFAYKKDVYLRVCTLIIFFAALVAVISGASCLYLVRRVINRGIVEKEAIINNHFERVLDGGLFFSAADVKKLYSMYNSAFLDDLTKAMGRKSFDEDLKALPEKGGYLCLFDVDKFKNINDTFGHLLGDEVLMKVVKILKSQIPVDKGKVYRFGGDEFAVIYTGGTLEELLSILKEIVHFQVGSINLSTSIGVAHSNECPTVERLKMLADERLYKSKKNGRAQISWQ | failed |
| MAEEEVGNSQRQSEEIEAMAAIYGEEWCVIDENAKIFCIRVTDFMDDPKWTLCLQVMLPSEYPGTAPPSYQLNAPWLKGQERADLSNSLEEIYVHNMGESILYQWVEKIRDALIQKSQITEPDPDVKKKTEEVEVESEEDPILEHPPENPVKTLDLKISEETQPETEELPPVAHGVPITDRRSTFQAHVAPVVCPEQVKLVLAKLYENKKIASATHNIYAYRIFCEDKQTFLQDCEDDGETAAGGRLLHLMEILNVKNVMVVVSRWYGGILLGPDRFKHINNCARNILVEKNFTNTPDESTKNLGKKKVKKDKKKNDH | failed |
| MTAREIAEHPFGTPTFTGRSWPLADVRLLAPILASKVVCVGKNYADHIAEMGGRPPADPVIFLKPNTAIIGPNTPIRLPANASPVHFEGELAIVIGRACKDVPAAQAVDNILGYTIGNDVSARDQQQSDGQWTRAKGHDTFCPVGPWIVTDLAPFDPADLELRTVVNGDVKQHARTSLMIHDIGAIVEWISAIMTLLPGDLILTGTPAGVGPIEDGDTVSITIEGIGTLTNPVVRKGKP | failed |
| MSAGEHAGGVFLGGIAIDEPTREAARAMVDRDREEFLPADPVAWVDDQLSELDDAFLRPAVNVRAVRLGPLRDVAAVCAAHDAILEVNAHCRQDELCDAGAGETLLRDTSRLCEQVRAASDEGAAVSVKVRAGVQGVHLPVLAQAIERAGAAAIHVDAMDSRRVVRDVADATALFVVANNGVRTRDDVFEYLSYGADAVSVGRPSRDPERVRAVYAAVKEWLL | failed |
| EAGGIGIWEWELKPNIFSWDKRMFELYEIPPHIKPNWQVWYECVLPEDRQHAEKVIRDSLQSRSPFKLEFRIAVKDGIRHIRALANRVLNKEGEVERLLGINMDMT | failed |
| MLSFCPSCNNMLLITSGDSGVYTLACRSCPYEFPIEGIEIYDRKKLPRKEVDDVLGGGWDNVDQTKTQCPNYDTCGGESAYFFQLQIRSADEPMTTFYKCVNCGHRWKEN | failed |
| MKRVALIHGWGGSFAATWEADGWSDALRAAGFDPVGVTIAGHGPEGGSHDPADYADLAGDLAAKLPAGLHGAIGFSLGTKLLLELEARSPGRNGRLVLGGIGDNLFAPEAAGPALVAALRGEATTPPPQVAALLAYAEKSASDPACLAAILERPANPVLTEDRLATAQAPILIFNSRDDAVAQPDTRLCRAMPHASHRLIEGPGHVALTSDARFREAAVEFLSK | failed |
| MKHYEVEILDAKTREKLCFLDKVEPHATIAEIKNLFTKTHPQWYPARQSLRLDPKGKSLKDEDVLQKLPVGTTATLYFRDL | not failed |
| MQYAYPLLAIFIWAGNTVINKLAVGAIFPAEIGFYRWLLAGLLFTPFMLKPVIKHWPEVRPNLWRIAILGVLGMAVYQSLAYFAASLTSATNMGIILSLMPLMSLAMAIAALGQRLTAGALVGAVLSFAGVLVVVSSGSLAALLQHGVNLGDAMMLVATLAYAIYSTLLKKWQLRLPPLVLLYLQVLVAVVVLLPLFLASPKVGPTLQNIPLVLYACLLASMLAPLAWMQAVVRLGPSRTTLFFNLLPLITALIAAVVLHEQLAWFHLVGGLLTLGGVILSERWTTVLGPLAGKPASAGQR | failed |
| MNYKLTLHPGSNPVEEFTSIPHGVTSLDLSLNNLYSISTVELIQAFANTPASVTSLNLSGNSLGFKNSDELVQILAAIPANVTSLNLSGNFLSYKSSDELVKTLAAIPFTITVLDLGWNDFSSKSSSEFKQAFSNLPASITSLNLRGNDLGIKSSDELIQILAAIPANVNSLNLRGNNLASKNCAELAKFLASIPASVTSLDLSANLLGLKSYAELAYIFSSIPNHVVSLNLCLNCLHGPSLENLKLLKDSLKHLQTVYLDYDIVKNMSKEQCKALGAAFPNIQKIILVDKNGKEIHPSHSIPISNLIRELSGKADVPSLEHHHHHH | not failed |
| MSSTSFTDLLGSSGVDCYEDDEDLRVSGSSFGGYYPERTGSGLPKFKTAQPPPLPISQSSHNFTFSDYLDSPLLLSSSHSLISPTTGTFPLQGFNGTTNNHSDFPWQLQSQPSNASSALQETYGVQDHEKKQEMIPNEIATQNNNQSFGTERQIKIPAYMVSRNSNDGYGWRKYGQKQVKKSENPRSYFKCTYPDCVSKKIVETASDGQITEIIYKGGHNHPKPEFTKRPSQSSLPSSVNGRRLFNPASVVSEPHDQSENSSISFDYSDLEQKSFKSEYGEIDEEEEQPEMKRMKREGEDEGMSIEVSKGVKEPRVVVQTISDIDVLIDGFRWRKYGQKVVKGNTNPRSYYKCTFQGCGVKKQVERSAADERAVLTTYEGRHNHDIPTALRRS | failed |
| MFHLIRWQDIADIIIMSFLAYRLYSWFRHTRAMQVLIGLGILAGVYFVTRNLGLFMTSWILQELGTVLFVLIIVVFQAEIRQALYRFSLLRTFIGRQEGGGELDLAELGRTVFGLARERTGALIVLQRQEALDDYLLHGVKVDGLPSSHLLGSIFRNGTPLHDGAVIIKDGRVSQASCHLPLSMKTELPQNFGTRHRAGIGLSERSDAVVIIVSEERGEVGMALAGEYRKIASPEEFAEVIQGLLYPQRPENVAFTLRQRLLRNLVPKIVTTLIVIAGWLVVTTKEGGIFTVTVPIKFHNLPPRSVLVKSVPESVEVQLKVFTSLIPSPRQLDLVADLNLAGVHDGVNSLAVKDDDLNLPLGVVVTGINPPMVKVTIAGKERKQLRVRPKLTGQLPGRAKLRSVTADPDTVVVEGPGHLLEGLESLPTETVDLAGLRRGGVVERRVVSPSPQIRVLRDEPVRVVVVTSVK | failed |
| MSVQTPDFSQQQQFLELTQQTIQNQQFDRLVLSQYKGTEPELEKVTFRMVELQQQFKLSALYHYTTKDVTKNYDLNDAIGVIETLIANCKQANLFGSVIEAQLKKNKKKAMLNVQQLSAEKYNNNVGQQHNREKQRYIDTMAPFLQYLGITEPNGNIIPAMARKWKQINKFIEIFSHAYEQIELKDDSIKIVDFGSGKGYLTFALYDYLQQQTRTAPQMTGVELRSNLVEFCEDVAKKAGFDHLDFFEGDVRTYAPEHLDVMIALHACDVATDFAIHTGIRLNASMIMCAPCCHKELRPQLQSPKVLKPMLQFGIHAGQQAEMLTDTLRALLLKAYGYDVKVFEFVSLEHTSKNKMILATKRQTIQQPDPQILEQIQALKQMYGIQKQTLELLLQDQITIDNVGCKC | failed |
| MRDWPAFLLALLVAFALWYSLQERAPVVERSLKVPLQVVGLGEGRRALGLPREVLLRLRGPAPLLEGRALPVSAYLDLSGAEGEVVREVRVAAPQGVEVLEVVPARVGVVVEVEAQRQIPVEVLAQGAWVLTDPAFVEAVGPESQVEAAVSAVGLDLGDEVVLFPLGPEGPLEGVELRPNRVRVVERREALFLKEVPLSLNPPPGRRLLDYAPKTVRLVGPREALEGLAGVTATLQEALGPGEVEVAVAPDLPPGVHTLGPVRVRVALELEHHHHHH | failed |
